The DeepSol protein solubility set

test: soluble on expression in E. coli; label from the status in PepcDB or PDB records

Soluble on expression in E. coli, not soluble:
MGSDKIHHHHHHMQIAVSGGKGGTGKSTVAINLAVELAKKFKLVLADLDVEAPNDHLLLGVELQNEREVHQFMPKFNYSKCIKCRKCAEACEEHAIVTLRDGTPFLMPTLCSGCRACEIVCPVPGAIEEGSRLIGHTYETLTPYGFTLVTGKLREGEERSMPLVVAAKRRAKELKWDLLIVDTAAGTGNTVSKAIEGSQLLIAVTEPTPLGIHDTELILKLGELMRIETWIVINRSDLGDVKEVYRRAKKYNAEVIAEIPYSENIVKTYVAGKPIVTTDYPEAGIFREIAEKVYEFLR
MGSDKIHHHHHHMVVLHSKGGFFLEILKVVDLKKHYGDVKAVDGISFTVERGTVFSFLGPNGAGKTTTVEILEGLRKKDSGEIYYFGERKDVLDRETKRKIGVCLQKSAFFENLTVWETLKLFRGLYGTGLDLKEVMGLFSLENIEKKMVKTLSGGQLQRLAVAVAFINDPEIVFLDEPTTGLDPQARRQIWDTIEHFKNLGKTIFLTTHYMEEAERLSDHVCIIDHGKIIAEGTPSSLISSSGLKTVVEFDCDQDVNVRYLEKKENHYVVETDAPEELIKDLLKNWNVSNIVIRKPNLEDVFLKLTGRDLRE
MAHHHHHHMNAVKLPEEWETLCSTNDAEVIHECINGVFRRLLANLLLDFNNPKLRQVKKDNKALHRLTDSLPAGFIEFLFSSIGFVEHDDVFIFEGSPESLKHGDAVLSYIEDSFGKERLQAAECELHRLRNLAIKKAENGLAPREMMTATAPLPRTQPLPQEEDAKRQAQHSGTEKDVAEEHAVKETVRKTLLNTGRVRNGFFEARDFSVRIMQHGRVYACTEKCPDHCVEVHWHLLTGRNILYSHLAHLSADGTRLLHLGPEHGYQYNSLPGSANFGKMIHFSEKLMDENGRLVHIKNDDKPVTACIYCGRAFAQLLL
DSDCHFAEQRDFSSQWFRVDDGGEIPDEQELHWHLEYLQQNPNAARDLLHALLPDKDASQGDWRCSYRLLQSADLMPLVFDYRWLMNGQFAFYLVDSASQENGGVATTLLVRALFDDYLRNLKSFSADLKDMVNIMEKGIECSDCAGAVK
MSVLEKIDSPADLKKVSNQELEELASEIRTAVLHKVSNIGGHVGPNLGVTELTIALHKVFNSPIDKFIWDVSHQTYPHKILTGRKNGFTDGHFHDITPYTSQRESEHDFFTVGHTSTSIANALGYAKARDLTNDKGNIVAVIGDGSLSGGLAMEALNNAGDFKGNLIILVNDNQMSIAENHGGLYRNLAELRATNGQAENNFFKTFGLDYKYLENGNDIESLIHLFEEVKDIDHPIVLHIHTEKGRGYQPALENKEAFHWHMPFDLETGQSKVIDSGKSYSSVMLDYMDKKVSEGLPLVAINAAIPGIFGLKQFAAKYPDRYIDAGIAEQFTITFGGAMAAAGARPIIFHNSTFVQRAYDQFWHDLAINEEPAIVIVKGGVISGSDETHQGSSAMTWISNIPNIKYLAPTSEEEFISILDWALEQHEEPVVIQMPEHGLESRPTVLTDYSTPSYQMTKSGEKVALLALGGLYSHGEKVAKVLAENGINATLINPLFINDLDQAFLENLVENHQVIATIEDGILDGGFGQKVASFLGKYDVKVLNFGAKREFNDSVPVTELYNRYHLTPELMVADILSLLKLEHHHHHH
MGSDKIHHHHHHMPLMPTTLCSHAGCNARAVGNGVCRIHKPKAKRQAPNQIKQAEPAKLKRIDHRLSASQRGYDVRWRSARLLFLNDEPLCRHCITQDITKGADVVDHILPHRGNQELFWDQTNWQPLCYPCHSIKTTTVDNKLSDYDIAQLRQGGWGKK
MSLTRRSDTSLRAALIIQNWYRGYKARLKARQHYALTIFQSIEYADEQGQMQLSTFFSFMLENYTHIHKEELELRNQSLESEQDMRDRWDYVDSIDVPDSYNGPRLQFPLTCTDIDLLLEAFKEQQILHAHYVLEVLFETKKVLKQMPNFTHIQTSPSKEVTICGDLHGKLDDLFLIFYKNGLPSERNPYVFNGDFVDRGKNSIEILMILCVSFLVYPNDLHLNRGNHEDFMMNLRYGFTKEILHKYKLHGKRILQILEEFYAWLPIGTIVDNEILVIHGGISETTDLNLLHRVERNKMKSVLIPPTETNRDHDTDSKHNKVGVTFNAHGRIKTNGSPTEHLTEHEWEQIIDILWSDPRGKNGCFPNTCRGGGCYFGPDVTSKILNKYQLKMLIRSHECKPEGYEICHDGKVVTIFSASNYYEEGSNRGAYIKLCSGTTPRFFQYQVTKATCFQPLREGHHHHHH
MGSDKIHHHHHHMPQSDIFGKAYHEATKHSYLSVQLDPNYLDASTQPSAFKFYPKFYRRVKLNLDNPIHSFIWLTSAVTFEKVYNNVAYKLRVNPSAGALYPTEMYVQIRGMPKIVDGIYHLEVENNCLTLIYELIDDGLESYVIPTKCITGFIFLISSVYYRSSWKYKQRSLRYCLLDSGHHLGAVAASAYLHSRDIQLIFDFDKLALNTDLGFENKEFITGCAISGEIHEKQIRKLRLKVPFVCGTDYFEANQFIEDSYQATSVQPSHQQQLQQPCFDFEQDKFYQTVWNRRSIRRFRKEFISQEHYLYVLQLLQQPIPTESGEEIEIYSVIHRVEGMKSGLYKGANLVKAGDFSEHTGYLCVNQALARDCAVVLFFVSKYTSYQTAMQIAGFLGQRIYLGSNYVGIQCSGIGAFYDDETQEFLETHKDVLYATAIGT
MRILFSLFFFISLSLLAQPLSLSLKNAPTAEILSYLAEENMKNIVLSDQIDKNTTLRIENSHFDEIVESIVRANQLSKRKEKQIYFIGHLKEDKAIEKIDNGDKPKLITQTIKLDYAKASEVIESLTKGKGNGNVLSEQGYLYFDERSNSLIIKDSPDSMKHILALIKNLDKPTEQIAIEARIVTISSQDLQELGVRWGMFSPSDDYHKVASSLETKGLTTANHLNVNFPVNNATSLALQVARINSRVLDLELTALEQENNVEIIASPRLLTTNKKPASIKQGAEIPYVLYNRKDEVKNIEFKEAVLGLQVTPHISADNQILLDLVVTQNSPNLNNTAVNGLITIDKQELNTQVFAKHGETIVLGGIFQHLTAKGEDRVPLLGSIPVLKKLFSHSTDKITKRELVIFVTPYLVQDKYKKLEHHHHHH
MGSDKIHHHHHHMIETQKEQERALLVGVELQQTDNFDMSMEELASLAKTAGALVKGVYTQKREKYDSKTFVGSGKLDEIAQMVEADEIDTVIVNNRLTPRQNVNLEEILGVKVIDRMQLILDIFAMRARSHEGKLQVHLAQLKYMLPRLVGQGIMLSRQAGGIGSRGPGESQLELNRRSIRNQIHDIERQLKTVEKNRATVRERRLQSGVFKIGLIGYTNAGKSTIMNVMTDKRQYEADELFATLDATTKQINLADKFNVTLTDTVGFIQDLPTELISAFKSTLEESMNVDLLLHIIDASDPNHSEQEQVVLDILKDLDMLDIPRLALYNKLDKTDDSFTPSQFPHVMLSAKDENAKGHIQMMVLAKIKTMFERFEVRVPLAESYKLHDLATLALIENRTYEEDVEVVSGYIASANKWKLEEFYDGLS
MDDASPTLASVIIPAFNAEAVLEQAVDSVRASIAHCAAHLAAAPAGAFEIILVDDASTDATLALARRLAAEDPRITVIARRRNGGAGPARNAGARAAKGEILFYLDADDGFLPPHVLACLQELLRHPEAGLVKTGIAVDFPLTEEWRQALIVSVVFNTALWKRCHEAIGGFMEDPELCVLRCEDVFYCDLLMRAFPARGIEAQTVRHTLRPGGAFDGQRAKFSAPPGEGPESLTPAQSAVLPLIRARHAERLARLGLEDAEALEHHHHHH
SQLADAEKINVPFPSSQTVVRLGQIGIDHHNQNYFPLMVGNYILGGGTLVSRLGTEVREKRGLTYGIDSQFVPMLGEGPFIISLSTKNSEARNALHITQDTLIKFIKNGPNQEELASAKQYLTGSFPLSLGSNTNIANLLLRMAFYHLPDNYLDTYVAKINAVTDAEIKQAFQQQVNPEKLLLVTVGQ

Soluble on expression in E. coli, soluble:
MDTFEKLDKVDLQILRTLQENARLTTKELAARVSLSSTPVFERLKRLESGGYIKKYIAVLDAEKLNQGFVVFCSVKLRRLNRDIAAEFTRIIQDIPEVTECYNISGSYDYLLKIHAPNMKYYQEFILNVLGTIDSLGSLESTFVMAEVKHRYGIHI
MGVYDYKNFGTADSKALFSDAMAITLYSYHNLDNGFAAGYQHNGFGLGLPATLVTALLGGTDSQGVIPGIPWNPDSEKLALDAVKKAGWTPITASQLGYDGKTDARGTFFGEKAGYTTAQVEILGKYDAQGHLTEIGIAFRGTSGPRENLILDSIGDVINDLLAAFGPKDYAKNYVGEAFGNLLNDVVAFAKANGLSGKDVLVSGHSLGGLAVNSMADLSGGKWGGFFADSNYIAYASPTQSSTDKVLNVGYENDPVFRALDGSTFTGASVGVHDAPKESATDNIVSFNDHYASTAWNLLPFSILNIPTWISHLPTAYGDGMNRIIESKFYDLTSKDSTIIVANLSDPARANTWVQDLNRNAETHKGSTFIIGSDSNDLIQGGSGNDYLEGRAGNDTFRDGGGYNVILGGAGNNTLDLQKSVNTFDFANDGAGNLYVRDANGGISITRDIGSIVTKEPGFLWGLFKDDVTHSVTASGLKVGSNVTQYDASVKGTNGADTLKAHAGGDWLFGLDGNDHLIGGVGNDVFVGGAGNDLMESGGGADTFLFNGAFGQDRVVGFTSNDKLVFLGVQGVLPNDDFRAHASMVGQDTVLKFGGDSVTLVGVALNSLSADGIVIA
MMWKQAMTDVAEKTLTNIKRFNGRFPHVSEDGEHYELNNNNEWTNGFWSGILWLCYEYTNDPAFRQAAASTVRSFQQRMEQNLELDHHDIGFLYSLSSKAQWIIERDERAKQLTIEAADVLMKRWREKIELFQAWGPEGDLSNGGRIIVDCLMNLPLLFWASEVTGNPDYREAAIIHADKTRRFIVRGDDSTYHTFYFNQETGEALRGGTHQGYEDGSTWSRGQAWAIYGFAIAYRYTGNERYLETAKRTAKYFIENLPADYVAYWDFNAPITPDTKRDSSASAIASCGILELLSHLQETDPDKAFFQQSVQKQMTSLVENYASEKDAQGLIKRGSYSVRIGHAPDDYVIWGDYFYTEALMRLEKLRNGYWYEGKLEHHHHHH
MASSMRSLFSDHGKYVESFRRFLNHSTEHQCMQEFMDKKLPGIIGRIGDTKSEIKILSIGGGAGEIDLQILSKVQAQYPGVCINNEVVEPSAEQIAKYKELVAKTSNLENVKFAWHKETSSEYQSRMLEKKELQKWDFIHMIQMLYYVKDIPATLKFFHSLLGTNAKMLIIVVSGSSGWDKLWKKYGSRFPQDDLCQYITSDDLTQMLDNLGLKYECYDLLSTMDISDCFIDGNENGDLLWDFLTETCNFNATAPPDLRAELGKDLQEPEFSAKKEGKVLFNNTLSFIVIEA
MKKFKNILFATQGLPGHSDALEQAIQLAYNNRGQLAGLIAFPAFPADLQRYQEPYEQSYLNTLMETVEACRSQHHIHKDEVPFPLMVEHSEQPAVAIIKSALNHHIDLLIKEAEPMTHSQQGFKALDMTLLRKCPCPVWLHRPLAKPKANRRVAVAIDPITTTEQQKALALRLLELSRSIANTCDSRLHIVSCWEYYLENYLHDQVWIQVEQQQIAEEIAQAKIRHEQALRQLIDESGITGELVIHHLHGKPDELIPEWVTQENIDILVMGTLARTGIAGFVIGNTAENIVQSIECSLVALKPEGFVSPIKNE
MLREFSFYDVPPAHVPPVSEPLEIACYSLSRDRELLLDDSKLSYYYPPPLFSDLNTGFPNRFHPPKSDPDPISIVKDVLMTKGIQMNSSFLTWRGLITKIMCAPLDPRNHWETYLVMDPTSGIIMMEERTRSETSYANQDRMCYWGYKFEAISTLPEIWDACSRDQIEQRDNQDVVPDEQYCSIVKINIGKSKLILAGEVDCIWDKKPCSAKESDVHSDDGTIEEDASNAENPNLHYVELKTSKKYPLENYGMRKKLLKYWAQSFLLGIGRIIIGFRDDNGILIEMKELFTHQIPKMLRPYFKPNDWTPNRLLVVLEHALEWIKQTVKQHPPSTEFTLSYTGGSKLVLRQIILEHHHHHH
